The results in this text go back to patent US20250367128A1, “BIODEGRADABLE LIPIDOIDS AND COMPOSITIONS AND METHODS OF USE THEREOF FOR LIVER TARGETED DELIVERY” (The Trustees of the University of Pennsylvania, priority 2022, published 2025).

The subject of this data set is hPCSK9 exon 7. Nature of the data set: In vitro validation of SpCas9 gRNA (plasmid transfection of cell line). It is filed as cell-based, human. As to conditions: data not shown. From the text: In this study, we perform pre-clinical gene editing studies using a PCSK9-hE7 mouse line having a humanized Pcsk9 gene. […] This allows for studies to use renucleic acids which can be directly translated to NHP or human. PCSK9 gene is a “safe harbor” for insertion of a gene therapy mini-gene. Previously, the SpCas9 gRNAs targeting hPCSK9 exon 7 was validated in vitro (plasmid transfection of cell line) with sgR1 yielded 32% indel formation (data not shown).

Strand notation (5' to 3'): a small letter for the sugar, then the base; units joined by * are phosphorothioate-linked, units joined directly phosphodiester-linked; [ ] holds rarer units or linkages, { } end groups; capitals alone tell only the bases. [PACE] = phosphonoacetate internucleotide linkage; m = 2'-O-methyl; r = 2'-OH (RNA)

B1: sgR1: SpCas9 gRNA targeting hPCSK9 exon 7, SEQ ID NO: 1 (nucleic acid)
guide: mG*mA*mC*rCrArArCrUrUrUrGrGrCrCrGrCrUrGrUrGrGrUrUrUrUrArGrAmGmCmUmAmGmAmAmAmUmAmGmCrArArGrUrUrArArArArUrArArGrGrCrUrArGrUrCrCrGrUrUrArUrCrAmAmCmUmUmGmAmAmAmAmAmGmUmGmGmCmAmCmCmGmAmGmUmCmGmGmUmGmCmU[PACE]mU[PACE]mU[PACE]mU
As for B1, the indel formation is reported as 32%.
